Laboratory results taken from patent US20230137139A1, “BIOSYNTHESIS OF CANNABINOIDS AND C[…]” (priority 2020, published 2023).

System: CBCA, THCA, and CBDA production
Assay: In vivo TS activity assay, Example 1 CBCAS library screen, cultures fed olivetolic acid, LC-MS
Format: cell-based, S. cerevisiae
Conditions: primary and secondary screen
Source text: To identify CBCAS genes that can be functionally expressed in host cells, a library of approximately 3000 candidate CBCAS genes was designed based on internal codebases and domain knowledge, sampled across enzyme families, ecological niches, and structural homologies. Protein sequences were recoded in silico for expression in S. cerevisiae and synthesized in the integrative yeast expression vector shown in FIG. 5. Each candidate enzyme expression construct was transformed into an S. cerevisiae CEN.PK strain that also expressed a prenyltransferase enzyme capable of catalyzing reaction R^4 in FIG. 2. Strain t616313, expressing GFP, was included in the library screen as a negative control for enzyme activity. […]
An assay to detect TS activity was conducted as follows: each thawed glycerol stock of candidate CBCAS transformants was stamped into a well of YEP+4% dextrose media. […] Optical measurements were taken on a plate reader, with absorbance measured at 600 nm and fluorescence at 528 nm with 485 nm excitation. […] CBCA, THCA, and CBDA production in the samples was quantified via liquid chromatography-mass spectrometry (LC-MS). […]

B1: putative C. sativa CBCAS enzyme: previously disclosed putative C. sativa CBCAS (SEQ ID NO: 15) (protein)
chain: MNCSTFSFWFVCKIIFFFLSFNIQISIANPQENFLKCFSEYIPNNPANPKFIYTQHDQLYMSVLNSTIQNLRFTSDTTPKPLVIVTPSNVSHIQASILCSKKVGLQIRTRSGGHDAEGLSYISQVPFAIVDLRNMHTVKVDIHSQTAWVEAGATLGEVYYWINEMNENFSFPGGYCPTVGVGGHFSGGGYGALMRNYGLAADNIIDAHLVNVDGKVLDRKSMGEDLFWAIRGGGGENFGIIAACKIKLVVVPSKATIFSVKKNMEIHGLVKLFNKWQNIAYKYDKDLMLTTHFRTRNITDNHGKNKTTVHGYFSSIFLGGVDSLVDLMNKSFPELGIKKTDCKELSWIDTTIFYSGVVNYNTANFKKEILLDRSAGKKTAFSIKLDYVKKLIPETAMVKILEKLYEEEVGVGMYVLYPYGGIMDEISESAIPFPHRAGIMYELWYTATWEKQEDNEKHINWVRSVYNFTTPYVSQNPRLAYLNYRDLDLGKTNPESPNNYTQARIWGEKYFGKNFNRLVKVKTKADPNNFFRNEQSIPPLPPRHH
CBCAS activity / CBCA production: not found to be active
